In the supplement of paper PMC9732359:
± gives the uncertainty stated by the source.

Assay: protein stability index of a GFP-peptide fusion (yeast GPS) (PSI 1-4); higher = more stable; sorted into four equal gates, so the index is relative within each strain
Method in brief: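 Tiled 17-residue yeast protein peptides were fused downstream of GFP in a plasmid that also expresses Cherry, and the pooled library was carried in yeast. Mid-log cultures in leucine-free medium were sorted into four equal gates by GFP/Cherry fluorescence ratio, and plasmids from each gate were PCR-amplified and Illumina-sequenced, with reads assigned to strains by barcodes. The protein stability index for each peptide was each gate's read frequency times its gate number, summed.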

| Sequence | protein stability index (doa10∆) | protein stability index (pdr5∆) | protein stability index (san1∆) | protein stability index (ubr1∆) |
| --- | --- | --- | --- | --- |
| IPIAIVLKACGILSDLE [RET1] | 1.4 ± 0.057 | 1.43 ± 0.061 | 1.36 ± 0.096 | 2.02 ± 0.053 |
| TWTNSKIFIKDPKFVNS [YML103C/NUP188] | 2.27 ± 0.11 | 2.05 ± 0.06 | 1.71 ± 0.11 | 1.73 ± 0.062 |
| ERDTFSDFTFPEYYSTA [DIS3] | 1.66 ± 0.082 | 1.73 ± 0.082 | 2.15 ± 0.17 | 1.64 ± 0.14 |
| IVTKDGVRKEFYELKRD [PRE7] | 2.35 ± 0.093 | 2.16 ± 0.066 | 3.04 ± 0.082 | 3.16 ± 0.07 |
| ERVRLRPEQLSNIIHDE [SNF6] | 1.73 ± 0.06 | 2.23 ± 0.068 | 1.76 ± 0.083 | 1.99 ± 0.041 |
| MHLMALHIHGSSNPLGI [COB] | 2.31 ± 0.07 | 2.1 ± 0.059 | 2.1 ± 0.052 | 2.32 ± 0.046 |
| VAEIVQNVISLGSLTVE [RPC82] | 1.97 ± 0.068 | 2.23 ± 0.098 | 1.97 ± 0.14 | 1.68 ± 0.11 |
| RRGYQVYREVCAACHSL [CYT1] | 2.22 ± 0.073 | 1.94 ± 0.059 | 1.47 ± 0.085 | 1.59 ± 0.039 |
| QENSSKIITLDLSNYAE [SMC1] | 3.13 ± 0.1 | 3.34 ± 0.053 | 3.1 ± 0.054 | 3.13 ± 0.044 |
| HPTVVDAIDNSDEITQD [IRR1] | 3.22 ± 0.093 | 3.17 ± 0.071 | 3.23 ± 0.068 | 3.15 ± 0.052 |
| ISKRKEELEEEFRKKLK [YIL149C/MLP2] | 3.49 ± 0.11 | 3.35 ± 0.1 | 3.06 ± 0.089 | 3.67 ± 0.11 |
| LAANYLNIKPLLDAGCK [SKP1] | 1.83 ± 0.076 | 2.19 ± 0.081 | 1.57 ± 0.12 | 2.23 ± 0.09 |
| SLQNNLQNNINNSNNNN [SNF11] | 3.19 ± 0.078 | 3.27 ± 0.099 | 3.31 ± 0.066 | 3.29 ± 0.062 |
| ETEEIDPELLRSYIFGG [RPL5] | 3.22 ± 0.073 | 3.44 ± 0.082 | 3.3 ± 0.046 | 3.23 ± 0.075 |
| NVRMDTMANILYYPQKP [RPB2] | 2.83 ± 0.11 | 3.23 ± 0.24 | 3.12 ± 0.1 | 2.99 ± 0.1 |
| ALYIAMMTRRVVMAMYN [RET1] | 3.11 ± 0.28 | – | – | – |
| ARIKDAFITQLESSITD [YJL039C/NUP192] | 2.83 ± 0.11 | 2.25 ± 0.1 | 1.14 ± 0.11 | – |
| ANRSRFNNEAPPQTRKF [SMB1] | 3.05 ± 0.083 | 3.03 ± 0.049 | 2.87 ± 0.069 | 3.26 ± 0.047 |
| QLKMVNERELNVFARLS [RPC82] | – | 2 ± 0.2 | – | 2.95 ± 0.12 |
| RTMLELITQLDGFDPRG [RPT1] | 2.6 ± 0.061 | 2.81 ± 0.061 | 2.91 ± 0.066 | 2.73 ± 0.096 |

| Sequence | protein stability index (doa10∆) | protein stability index (pdr5∆) | protein stability index (san1∆) | protein stability index (ubr1∆) |
| --- | --- | --- | --- | --- |
| HGMTLRESFEDNVVRFL [RPO21] | 3.27 ± 0.098 | 3.09 ± 0.12 | 3.29 ± 0.089 | 3.17 ± 0.078 |
| RVMKSLSINEKDFVTMA [YCG1] | 2.35 ± 0.073 | 2.06 ± 0.052 | 2.1 ± 0.082 | 2.16 ± 0.042 |
| STEYMMQFAKSKTVKVL [RPN6] | 1.1 ± 0.064 | 1.2 ± 0.073 | 1.2 ± 0.2 | 1.07 ± 0.094 |
| TVKTNDELMVIYISNLV [RPN8] | 1.66 ± 0.12 | 1.5 ± 0.063 | 1.51 ± 0.15 | 1.29 ± 0.078 |
| EEASQLIEYMENDAKKS [NUT1] | 2.95 ± 0.081 | 3.2 ± 0.067 | 3.15 ± 0.061 | 3.04 ± 0.048 |
| LLCALDRKDQDDRDHFG [RPB2] | 3.22 ± 0.096 | 3.28 ± 0.067 | 2.71 ± 0.1 | 3.47 ± 0.05 |
| ERVSPTDIEEGMRVGVD [RPT1] | 3.16 ± 0.14 | 3.4 ± 0.14 | 2.83 ± 0.096 | 3.16 ± 0.12 |
| LSAEYLVILKPDLNIDR [SIN4] | 2.97 ± 0.063 | 3.1 ± 0.1 | 2.97 ± 0.058 | 2.94 ± 0.045 |
| KQNSSSDINQNDDSSSM [YDL088C/ASM4] | 3.1 ± 0.17 | 2.94 ± 0.08 | 2.58 ± 0.088 | 2.69 ± 0.058 |
| TVEALDFREKALYIAMM [RET1] | 2.73 ± 0.1 | 3.03 ± 0.096 | 3.29 ± 0.076 | 2.59 ± 0.082 |
| INNLPPEKEASSATIVL [YCG1] | 2.55 ± 0.16 | 2.88 ± 0.14 | 2.29 ± 0.19 | 2.52 ± 0.073 |
| GQVAIKTLVYLEKCEAE [YCS4] | – | – | – | 2.92 ± 0.24 |
| YNMYDAYGNWFNGLKPL [PRP8] | 2.93 ± 0.06 | 3.36 ± 0.093 | 2.9 ± 0.11 | 3.13 ± 0.048 |
| KSIENPTQTKGNDAKPA [YLR335W/NUP2] | 3.12 ± 0.075 | 3.24 ± 0.058 | 3.23 ± 0.046 | 2.94 ± 0.055 |
| ILPTDGSAEFNVKYRAV [RPB7] | 2.57 ± 0.2 | – | 3.08 ± 0.13 | 3.48 ± 0.22 |
| LVVIRFGRKNDRQCMIM [DIB1] | 2.4 ± 0.061 | 2.55 ± 0.055 | 2.33 ± 0.073 | 2.79 ± 0.038 |
| TQAIADIVQYHLELYTS [PRE3] | 2.07 ± 0.064 | 1.72 ± 0.057 | 1.77 ± 0.069 | 2.01 ± 0.042 |
| TVRVDKASTYGELVLDI [SNF12] | 2.38 ± 0.06 | 2.38 ± 0.053 | 2.02 ± 0.086 | 1.81 ± 0.044 |
| GVHTGQFIYAGKKASLN [RPL2A] | – | 3.51 ± 0.19 | 3.15 ± 0.1 | 3.4 ± 0.12 |
